Source: patent publication US20090317333

Tested on: AKAR3 (A-Kinase Activity Reporter 3)

In the case of “catalytic subunit of PKA (protein kinase A), as used in the in vitro kinase assay”, the “FRET efficiency of AKAR3 after phosphorylation (trypsin quantification)” value is reported as 38.8%±7.36% and 47.2%±7.67% (n=2) before and after phosphorylation, respectively, the “FRET efficiency of AKAR3 before phosphorylation (trypsin quantification)” value is reported as 38.8%±7.36% and 47.2%±7.67% (n=2) before and after phosphorylation, respectively and the “increase of the emission ratio of AKAR3 over approximately 40 minutes after addition of ATP (in vitro kinase assay)” value is reported as 29.1%±1.11% (n=2).
